43 variants from the Human Domainome abundance scans (Beltran et al. 2025) can be followed below.

B1: Intersectin-1, residues 909 to 971; numbered along this chain, Q15811 (parent)
chain: QGEKVEGLQAQALYPWRAKKDNHLNFNKNDVITVLEQQDMWWFGEVQGQKGWFPKSYVKLISG

± gives the uncertainty stated by the source.

Variants of B1 are the subject of this series. Description: abundance fitness (aPCA) (normalised: wild type 0, dead -1); higher = more abundant; growth selection in yeast, the domain comes from the species named. The settings on record: Homo sapiens.
Take QGEKVEGLQCQALYPWRAKKDNHLNFNKNDVITVLEQQDMWWFGEVQGQKGWFPKSYVKLISG [A10C]: the abundance fitness was -0.174 ± 0.36. For QGEKVEGLQLQALYPWRAKKDNHLNFNKNDVITVLEQQDMWWFGEVQGQKGWFPKSYVKLISG [A10L] the value was -0.272 ± 0.15; for QGEKVEGLQVQALYPWRAKKDNHLNFNKNDVITVLEQQDMWWFGEVQGQKGWFPKSYVKLISG [A10V], 0.095 ± 0.093.

Regarding QGEKVEGLQSQALYPWRAKKDNHLNFNKNDVITVLEQQDMWWFGEVQGQKGWFPKSYVKLISG [A10S], the abundance fitness was -0.506 ± 0.12. For QGEKVEGLQWQALYPWRAKKDNHLNFNKNDVITVLEQQDMWWFGEVQGQKGWFPKSYVKLISG [A10W] the value was -0.183 ± 0.14; for QGEKVEGLQTQALYPWRAKKDNHLNFNKNDVITVLEQQDMWWFGEVQGQKGWFPKSYVKLISG [A10T], -0.746 ± 0.24. Take QGEKVEGLQYQALYPWRAKKDNHLNFNKNDVITVLEQQDMWWFGEVQGQKGWFPKSYVKLISG [A10Y]: the abundance fitness was 0.003 ± 0.24. QGEKVEGLQRQALYPWRAKKDNHLNFNKNDVITVLEQQDMWWFGEVQGQKGWFPKSYVKLISG [A10R]: the abundance fitness was -0.807 ± 0.17. The result for QGEKVEGLQMQALYPWRAKKDNHLNFNKNDVITVLEQQDMWWFGEVQGQKGWFPKSYVKLISG [A10M] reads -0.223 ± 0.15.

As to QGEKVEGLQAQANYPWRAKKDNHLNFNKNDVITVLEQQDMWWFGEVQGQKGWFPKSYVKLISG [L13N], the abundance fitness is -0.024 ± 0.42. Take QGEKVEGLQAQATYPWRAKKDNHLNFNKNDVITVLEQQDMWWFGEVQGQKGWFPKSYVKLISG [L13T]: the abundance fitness was -0.233 ± 0.18.

In the case of QGEKVEGLQAQAIYPWRAKKDNHLNFNKNDVITVLEQQDMWWFGEVQGQKGWFPKSYVKLISG [L13I], the abundance fitness was -0.393 ± 0.46. For QGEKVEGLQAQAQYPWRAKKDNHLNFNKNDVITVLEQQDMWWFGEVQGQKGWFPKSYVKLISG [L13Q] the value was -0.2 ± 0.28; for QGEKVEGLQAQACYPWRAKKDNHLNFNKNDVITVLEQQDMWWFGEVQGQKGWFPKSYVKLISG [L13C], -0.268 ± 0.28; for QGEKVEGLQAQASYPWRAKKDNHLNFNKNDVITVLEQQDMWWFGEVQGQKGWFPKSYVKLISG [L13S], -0.412 ± 0.2. The result for QGEKVEGLQAQAMYPWRAKKDNHLNFNKNDVITVLEQQDMWWFGEVQGQKGWFPKSYVKLISG [L13M] reads -0.204 ± 0.29. For QGEKVEGLQAQADYPWRAKKDNHLNFNKNDVITVLEQQDMWWFGEVQGQKGWFPKSYVKLISG [L13D] the value was -0.158 ± 0.29; for QGEKVEGLQAQAAYPWRAKKDNHLNFNKNDVITVLEQQDMWWFGEVQGQKGWFPKSYVKLISG [L13A], -0.271 ± 0.22; for QGEKVEGLQAQAVYPWRAKKDNHLNFNKNDVITVLEQQDMWWFGEVQGQKGWFPKSYVKLISG [L13V], 0.091 ± 0.12.

For the variant QGEKVEGLQAQARYPWRAKKDNHLNFNKNDVITVLEQQDMWWFGEVQGQKGWFPKSYVKLISG [L13R], the abundance fitness was -0.126 ± 0.11. For QGEKVEGLQAQAEYPWRAKKDNHLNFNKNDVITVLEQQDMWWFGEVQGQKGWFPKSYVKLISG [L13E] the value was -0.267 ± 0.26; for QGEKVEGLQAQAGYPWRAKKDNHLNFNKNDVITVLEQQDMWWFGEVQGQKGWFPKSYVKLISG [L13G], -0.709 ± 0.13; for QGEKVEGLQAQALCPWRAKKDNHLNFNKNDVITVLEQQDMWWFGEVQGQKGWFPKSYVKLISG [Y14C], -0.511 ± 0.14. QGEKVEGLQAQALEPWRAKKDNHLNFNKNDVITVLEQQDMWWFGEVQGQKGWFPKSYVKLISG [Y14E]: the abundance fitness was 0.023 ± 0.12.

QGEKVEGLQAQALAPWRAKKDNHLNFNKNDVITVLEQQDMWWFGEVQGQKGWFPKSYVKLISG [Y14A]: the abundance fitness is -0.09 ± 0.092.

For QGEKVEGLQAQALDPWRAKKDNHLNFNKNDVITVLEQQDMWWFGEVQGQKGWFPKSYVKLISG [Y14D], the abundance fitness is -0.104 ± 0.17. The result for QGEKVEGLWAQALYPWRAKKDNHLNFNKNDVITVLEQQDMWWFGEVQGQKGWFPKSYVKLISG [Q9W] reads -0.109 ± 0.097; that for QGEKVEGLEAQALYPWRAKKDNHLNFNKNDVITVLEQQDMWWFGEVQGQKGWFPKSYVKLISG [Q9E], 0.008 ± 0.12; that for QGEKVEGLFAQALYPWRAKKDNHLNFNKNDVITVLEQQDMWWFGEVQGQKGWFPKSYVKLISG [Q9F], -0.159 ± 0.2.

As for QGEKVEGLSAQALYPWRAKKDNHLNFNKNDVITVLEQQDMWWFGEVQGQKGWFPKSYVKLISG [Q9S], the abundance fitness was -0.083 ± 0.098. Turning to QGEKVEGLNAQALYPWRAKKDNHLNFNKNDVITVLEQQDMWWFGEVQGQKGWFPKSYVKLISG [Q9N], the abundance fitness is 0.012 ± 0.28.

As for QGEKVEGLMAQALYPWRAKKDNHLNFNKNDVITVLEQQDMWWFGEVQGQKGWFPKSYVKLISG [Q9M], the abundance fitness came out at 0.095 ± 0.17.

As to QGEKVEGLLAQALYPWRAKKDNHLNFNKNDVITVLEQQDMWWFGEVQGQKGWFPKSYVKLISG [Q9L], the abundance fitness is -0.133 ± 0.12. As to QGEKVEGLVAQALYPWRAKKDNHLNFNKNDVITVLEQQDMWWFGEVQGQKGWFPKSYVKLISG [Q9V], the abundance fitness is -0.093 ± 0.095. In the case of QGEKVEGLGAQALYPWRAKKDNHLNFNKNDVITVLEQQDMWWFGEVQGQKGWFPKSYVKLISG [Q9G], the abundance fitness was -0.331 ± 0.071. The result for QGEKVEGLPAQALYPWRAKKDNHLNFNKNDVITVLEQQDMWWFGEVQGQKGWFPKSYVKLISG [Q9P] reads -0.17 ± 0.2. In the case of QGEKVEGLKAQALYPWRAKKDNHLNFNKNDVITVLEQQDMWWFGEVQGQKGWFPKSYVKLISG [Q9K], the abundance fitness is -0.015 ± 0.14. Turning to QGEKVEGLCAQALYPWRAKKDNHLNFNKNDVITVLEQQDMWWFGEVQGQKGWFPKSYVKLISG [Q9C], the abundance fitness is -0.109 ± 0.17. For the variant QGEKVEGLIAQALYPWRAKKDNHLNFNKNDVITVLEQQDMWWFGEVQGQKGWFPKSYVKLISG [Q9I], the abundance fitness is -0.172 ± 0.21. QGEKVEGLHAQALYPWRAKKDNHLNFNKNDVITVLEQQDMWWFGEVQGQKGWFPKSYVKLISG [Q9H]: the abundance fitness came out at 0.011 ± 0.27. For QGEKVEGLAAQALYPWRAKKDNHLNFNKNDVITVLEQQDMWWFGEVQGQKGWFPKSYVKLISG [Q9A], the abundance fitness was -0.07 ± 0.092. For QGEKVEGLYAQALYPWRAKKDNHLNFNKNDVITVLEQQDMWWFGEVQGQKGWFPKSYVKLISG [Q9Y], the abundance fitness was -0.047 ± 0.18.

Take QGEKVEGLTAQALYPWRAKKDNHLNFNKNDVITVLEQQDMWWFGEVQGQKGWFPKSYVKLISG [Q9T]: the abundance fitness was -0.076 ± 0.14.
